Data from US20210355220A1 (TIKCRO TECHNOLOGIES, published 2021).
Where two headings read alike, the source gives them in different places.

Tests used:
hPD1 on HEK293 cells = molecular target: T1, hPD1 on HEK293 cells (human, UniProt Q15116 25-288); assay: flow cytometry on transfected HEK293 cells
T1 construct: whole, on cells
Method: (§1) HEK293 cells were transfected with expression vectors of the following immune-related proteins: hBTLA, hICOS, hCD28, hPDL1, hPD1, hPDL2, and hCTLA-4. Over-expression of the proteins was verified using commercial antibodies against each target. […] Antibody binding to cells was then detected using flow cytometry. Cells that were incubated only with the secondary antibody were used as a background control. […] Note that “+” indicates binding above the background level and “-” indicate no binding as compared to the background level.

hBTLA on HEK293 cells = molecular target: T2, hBTLA on HEK293 cells (human, UniProt Q7Z6A9 31-289); assay: flow cytometry on transfected HEK293 cells
T2 construct: whole, on cells
Method: as §1

hICOS on HEK293 cells = molecular target: T3, hICOS on HEK293 cells (human, UniProt Q9Y6W8 21-199); assay: flow cytometry on transfected HEK293 cells
T3 construct: whole, on cells
T3 sequence (looked up): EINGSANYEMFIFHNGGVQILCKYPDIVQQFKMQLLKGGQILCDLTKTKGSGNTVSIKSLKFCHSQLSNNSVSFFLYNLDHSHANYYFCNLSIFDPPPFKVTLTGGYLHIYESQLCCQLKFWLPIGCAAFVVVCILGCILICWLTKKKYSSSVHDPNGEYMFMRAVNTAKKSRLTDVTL
Method: as §1

[1] = molecular target: T4, human CTLA-4 expressed on cells (human, UniProt P16410 36-223); assay: flow cytometry on transfected HEK293 cells
T4 construct: whole, on cells; On stably or transiently transfected HEK293 cells; also called hCTLA-4; HEK293-hCTLA-4 cells
T4 sequence (P16410 36-223): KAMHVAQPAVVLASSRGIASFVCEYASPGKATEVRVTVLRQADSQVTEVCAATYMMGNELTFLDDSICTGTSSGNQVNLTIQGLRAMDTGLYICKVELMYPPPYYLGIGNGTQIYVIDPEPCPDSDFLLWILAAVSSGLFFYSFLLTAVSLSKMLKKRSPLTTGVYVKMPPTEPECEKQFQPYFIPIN
Method: as §1

hPDL2 on HEK293 cells = molecular target: T5, hPDL2 on HEK293 cells (human, UniProt Q9BQ51 20-273); assay: flow cytometry on transfected HEK293 cells
T5 construct: whole, on cells
T5 sequence (looked up): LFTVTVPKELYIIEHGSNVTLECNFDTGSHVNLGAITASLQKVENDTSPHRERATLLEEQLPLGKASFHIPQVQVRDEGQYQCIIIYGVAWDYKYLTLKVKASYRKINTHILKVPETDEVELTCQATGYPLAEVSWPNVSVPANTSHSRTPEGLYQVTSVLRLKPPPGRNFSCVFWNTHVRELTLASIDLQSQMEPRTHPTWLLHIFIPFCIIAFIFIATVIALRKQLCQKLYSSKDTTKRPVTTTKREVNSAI
Method: as §1

hPDL1 on HEK293 cells = molecular target: T6, hPDL1 on HEK293 cells (human, UniProt Q9NZQ7 19-290); assay: flow cytometry on transfected HEK293 cells
T6 construct: whole, on cells
T6 sequence (Q9NZQ7 19-290): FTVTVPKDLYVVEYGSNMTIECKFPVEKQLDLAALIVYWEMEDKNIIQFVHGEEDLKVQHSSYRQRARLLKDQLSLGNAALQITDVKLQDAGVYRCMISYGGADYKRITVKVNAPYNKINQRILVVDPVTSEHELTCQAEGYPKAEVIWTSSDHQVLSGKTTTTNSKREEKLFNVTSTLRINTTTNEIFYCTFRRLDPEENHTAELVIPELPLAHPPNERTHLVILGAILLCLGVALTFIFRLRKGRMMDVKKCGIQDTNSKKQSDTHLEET
Method: as §1

hCD28 on HEK293 cells = molecular target: T7, hCD28 on HEK293 cells (human, UniProt P10747 19-220); assay: flow cytometry on transfected HEK293 cells
T7 construct: whole, on cells
Method: as §1

[2] = molecular target: T4, human CTLA-4 expressed on cells; assay: flow cytometry, inhibition of CD86-mFC binding to HEK293-hCTLA-4 cells
Method: (§2) As part of their activity, CTLA-4 therapeutic antibodies block the interaction between CTLA-4 and its ligands, leaving the ligands free for CD28 binding. […] First, HEK293-hCTLA-4 cells were incubated with the tested antibodies in a serial dilution for 30 minutes. […] The fluorescence was measured and analyzed. The experiment was performed in triplicate and is representative of three biological repeats.

[3] = molecular target: T8, Mouse (Mus musculus) CTLA-4 on HEK293 cells (Mus musculus, UniProt P09793 36-223); assay: flow cytometry on HEK293 cells transiently expressing mouse CTLA-4
T8 construct: whole, on cells; also called mouse CTLA-4
Method: (§3) Macaque (Macaca fascicularis), pig (Sus scrofa) and mouse (Mus musculus) CTLA-4 proteins were transiently expressed on the surface of HEK293 cells. […] Binding was measured using FACS and analyzed.

[4] = molecular target: T4, human CTLA-4 expressed on cells; assay: flow cytometry, inhibition of CD80-mFC binding to HEK293-hCTLA-4 cells, reference tremelimumab
Method: as §2

[5] = molecular target: T4, human CTLA-4 expressed on cells; assay: flow cytometry on HEK293-hCTLA-4 cells
Method: (§4) To test the binding of antibodies to CTLA-4 under more physiological conditions, the binding of CTLA-4 antibodies to cell-surface CTLA-4 was tested. […] The surface expression of hCTLA-4 in the obtained cell line was tested using a commercial anti-CTLA-4 antibody and compared to the parent cell line (HEK293 without transfection). […] The anti-CTLA-4 antibodies were incubated in serial dilution concentrations with the HEK293-hCTLA-4 cells for 1 hour on ice. Following a wash step, an anti-human antibody conjugated to ALEXA FLUOR® 647® was added for an additional hour. The cells were washed, and propidium iodide (PI) was added to exclude dead cells. The fluorescent signal was measured using FACS and analyzed. Dead cells were removed based on the PI signal. The population was gated based on forward and side scatter (FSC and SSC) parameters, and doublets were removed. The Median Fluorescent Intensity (MFI) of the appropriate channel was calculated for the live single cells from each group. The MFI was plotted versus antibody concentration in Prism software (V6.01) and kinetic parameters were obtained using a curve fit dose response function with four parameters. […] The lower EC₅₀ values indicate increased binding affinity to cell surface hCTLA-4.

[6] = molecular target: T4, human CTLA-4 expressed on cells; assay: flow cytometry on HEK293-hCTLA-4 cells, reference ipilimumab
Method: as §4

[7] = molecular target: T9, Pig (Sus scrofa) CTLA-4 on HEK293 cells (Sus scrofa, UniProt Q9MYX7 36-223); assay: flow cytometry on HEK293 cells transiently expressing pig CTLA-4
T9 construct: whole, on cells; also called pig CTLA-4
T9 sequence (Q9MYX7 36-223): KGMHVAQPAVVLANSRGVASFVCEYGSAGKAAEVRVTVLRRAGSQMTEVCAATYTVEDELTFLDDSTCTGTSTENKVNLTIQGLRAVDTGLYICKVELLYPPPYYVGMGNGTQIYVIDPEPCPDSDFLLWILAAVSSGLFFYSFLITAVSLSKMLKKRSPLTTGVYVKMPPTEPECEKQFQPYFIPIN
Method: as §3

[8] = molecular target: T4, human CTLA-4 expressed on cells; assay: flow cytometry on HEK293-hCTLA-4 cells; remark: listed apart in the source
Method: as §4

[9] = molecular target: T4, human CTLA-4 expressed on cells; assay: cell-based or functional assay
[10] = molecular target: T8, Mouse (Mus musculus) CTLA-4 on HEK293 …; assay: flow cytometry on HEK293 cells transiently expressing mouse CTLA-4, reference ipilimumab
Method: as §3

T1 sequence (Q15116 25-288): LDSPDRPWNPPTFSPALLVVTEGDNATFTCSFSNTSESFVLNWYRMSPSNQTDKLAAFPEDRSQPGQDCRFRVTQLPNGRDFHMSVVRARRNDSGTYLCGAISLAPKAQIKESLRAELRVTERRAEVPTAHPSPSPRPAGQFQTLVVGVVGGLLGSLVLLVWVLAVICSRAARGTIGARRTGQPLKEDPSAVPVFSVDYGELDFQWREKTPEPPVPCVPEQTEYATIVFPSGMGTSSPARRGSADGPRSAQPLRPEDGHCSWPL

MFI (hPD1 on HEK293 cells): 72 MFI
binding result (hPD1 on HEK293 cells): no binding
MFI (hBTLA on HEK293 cells): 68 MFI
binding result (hBTLA on HEK293 cells): no binding
MFI (hICOS on HEK293 cells): 67 MFI
binding result (hICOS on HEK293 cells): no binding
MFI [1]: 3290 MFI
MFI (hPDL2 on HEK293 cells): 70 MFI
binding result (hPDL2 on HEK293 cells): no binding
MFI (hPDL1 on HEK293 cells): 69 MFI
binding result (hPDL1 on HEK293 cells): no binding
MFI (hCD28 on HEK293 cells): 66 MFI
binding result (hCD28 on HEK293 cells): no binding
IC50 [2]: 1500 pM
EC50 [3]: 34000 pM
Ratio Tremelimumab:Ab55h of IC50 [4]: 1.6 fold
EC50 [5]: 240 pM
Ratio Ipilimumab:Ab55h of EC50 [6]: 6.1 fold
EC50 [7]: 120 pM
EC50 [8]: 170 pM
SHP1 reporter IC50 [9]: 59 pM
SHP1 reporter IC50, Ratio Ab55h:Ipilimumab [9]: 4.5 fold
Ratio Ipilimumab:Ab55h of EC50 [10]: 0.18 fold
B1: Ab55h (antibody, V domains shown)
VH: QVQLQESGPGLVKPSETLSLTCAVSGYSISGDYYWGWIRQPPGKGLEWIGSIYHSGYTYYNPSLKSRVTISVDTSKNQFSLKLSSVTAADTAVYYCARDSGWYVIAFDYWGQGTLVTVSS
VL: EIVMTQSPATLSVSPGERATLSCRASQSVSSNLAWYQEKPGQAPRLLIYGASTRATGIPARFSGSGSGTEFTLTISSLQSEDFAVYYCQQYNNWPPLTFGGGTKVEIK
notes: Human form, compared with an hIgG1 isotype control
